According to article PMC12851022 (2025):

Legend:
[1] = biological target: T1, VHL (Homo sapiens, UniProt P40337); assay: FRET
[2] = biological target: T1, VHL; assay: Alpha assay

T1 sequence (P40337 whole entry): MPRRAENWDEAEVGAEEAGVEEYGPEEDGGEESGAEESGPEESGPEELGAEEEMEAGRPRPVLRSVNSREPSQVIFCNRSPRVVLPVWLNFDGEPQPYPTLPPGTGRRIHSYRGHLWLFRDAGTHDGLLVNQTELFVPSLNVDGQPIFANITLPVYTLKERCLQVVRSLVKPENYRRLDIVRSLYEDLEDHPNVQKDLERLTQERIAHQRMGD

Kd [1]: 12 nM
Kd [2]: 232 nM
B1: USP39 (protein)
chain: MSGRSKRESRGSTRGKRESESRGSSGRVKRERDREREPEAASSRGSPVRVKREFEPASAREAPASVVPFVRVKREREVDEDSEPEREVRAKNGRVDSEDRRSRHCPYLDTINRSVLDFDFEKLCSISLSHINAYACLVCGKYFQGRGLKSHAYIHSVQFSHHVFLNLHTLKFYCLPDNYEIIDSSLEDITYVLKPTFTKQQIANLDKQAKLSRAYDGTTYLPGIVGLNNIKANDYANAVLQALSNVPPLRNYFLEEDNYKNIKRPPGDIMFLLVQRFGELMRKLWNPRNFKAHVSPHEMLQAVVLCSKKTFQITKQGDGVDFLSWFLNALHSALGGTKKKKKTIVTDVFQGSMRIFTKKLPHPDLPAEEKEQLLHNDEYQETMVESTFMYLTLDLPTAPLYKDEKEQLIIPQVPLFNILAKFNGITEKEYKTYKENFLKRFQLTKLPPYLIFCIKRFTKNNFFVEKNPTIVNFPITNVDLREYLSEEVQAVHKNTTYDLIANIVHDGKPSEGSYRIHVLHHGTGKWYELQDLQVTDILPQMITLSEAYIQIWKRRDNDETNQQGA
modifications: USP39_PROTAC_V1
